Source: publication PMC5653232 (Cell reports, 2017)

Key:
CHD3 PHD1/2 = test: Tryptophan fluorescence, linked CHD3 PHD1/2 with histone H3 peptides; type: binding; settings: either peptide; apparent Kds measured by tryptophan fluorescence
H3K9Cme3-NCP = test: Fluorescence polarization, CHD3 PHD1/2 with H3K9Cme3-NCP; type: binding, human; settings: read-out: apparent dissociation constant Kd (H3K9Cme3-NCP), 5 nM nucleosomes, 15 mM Tris pH 7.5, 75 mM NaCl, 0.00625% Tween20, 3 mM DTT, three separate experiments
Cy3-Cy5-H3K9Cme3-NCP = test: FRET nucleosome unwrapping, Cy3-Cy5-H3K9Cme3-NCP; type: biochemical, human

B1: CHD3 PHD1/2: natively linked tandem PHD fingers of CHD3, construct PHD1/2 (373–508) (protein)
chain: GYETDHQDYCEVCQQGGEIILCDTCPRAYHLVCLDPELDRAPEGKWSCPHCEKEGVQWEAKEEEEEYEEEGEEEGEKEEEDDHMEYCRVCKDGGELLCCDACISSYHIHCLNPPLPDIPNGEWLCPRCTCPVLKGR
modifications: left off: GST, end not stated, cleaved
fold stronger binding of linked PHD1/2 than unlinked individual domains (CHD3 PHD1/2): ~10^2 fold
Kd (H3K9Cme3-NCP): 1400 nM
change in FRET efficiency by CHD3 PHD1/2 without LA (Cy3-Cy5-H3K9Cme3-NCP; CHD3 PHD1/2 up to 300 µM): no measurable change in the FRET efficiency
change in FRET efficiency by CHD3 PHD1/2 with LA (Cy3-Cy5-H3K9Cme3-NCP; LA at a concentration equivalent to the LA S1/2): reduced substantially
